Assay results from patent US20120135912A1 (PERSEID THERAPEUTICS, published 2012).

Legend:
[1] = target: T1, human VLA4-Fc (alpha4-Fc/beta1-Fc heterodimer) (human); experiment: SPR (BIACORE), VLA4-Fc captured by anti-human IgG, 1 mM MnCl2, 1:1 Langmuir
T1 construct: Soluble heterodimer from CHO cells, Protein A purified; also called VLA-Fc
Method: (§1) The kinetic 2D-VCAM-1 assay measures binding kinetics of a dimeric ligand (e.g., VLA-Fc fusion protein or LPAM-1-Fc fusion protein) coated to sensor chips and monomeric analyte (e.g., 2D-VCAM-1 variant polypeptides) in the mobile phase. Goat anti-human IgG antibody (Jackson ImmunoResearch, Catalog No. 105-005-098) was immobilized on CM-5 sensor chips (GE Healthcare, Catalog No. BR-1000-14) according to the manufacturer's protocol. Antibody was diluted to 30 μg/ml in immobilization buffer (10 mM sodium acetate, pH 5.0 (GE Healthcare, Catalog No. BR-1003-51)). […] Un-reacted sites were quenched with 35 μl of 1 M ethanolamine-HCl pH 8.5 (GE Healthcare, Catalog No. BR-1000-50). This procedure typically yielded 15,000 response units (RU) of coupled antibody. VLA4-Fc or LPAM-1-Fc, prepared as described in Examples 3 and 4, respectively, were bound to antibody-coated sensor chips by injection of 20 μl of ligand solution (20 μg/ml protein in HBS-P-Mn buffer at a flow rate of 10 μl/min). Ligand capture levels were typically 200-300 RU. 2D-VCAM-1 variant polypeptides were diluted in HBS-P-Mn and flowed over ligand-coated sensor chips for 2 min at 30 μl/min, followed by 5 min incubation with in HBS-P-Mn containing no protein at the same flow rate. For 2D-VCAM-1 variant polypeptides having very slow dissociation rates from VLA4-Fc or LPAM-1-Fc, kinetic assays were also conducted using longer dissociation times (e.g., 20 min). Rmax signal levels for 2D-VCAM-1 variant polypeptides ranged from approximately 5-25 RU. Regeneration between cycles was performed by 200 sec incubation with 10 mM glycine buffer (pH 1.7) at 50 μl/min. New chips were subjected to 4-5 cycles of capture/binding/regeneration prior to use in actual experiments. Data from a reference cell containing goat anti-human IgG capture antibody alone was subtracted from data obtained from flow cells containing captured VLA4-Fc or LPAM-1-Fc. Typically, 8 dilutions of 2D-VCAM-1 variant polypeptides ranging from 150 nM to 0.069 nM were analyzed against a blank reference (HBS-P-Mn buffer alone).

[2] = target: T2, human LPAM-1-Fc (alpha4-Fc/beta7-Fc heterodimer) (human); experiment: SPR (BIACORE), LPAM-1-Fc captured by anti-human IgG, 1 mM MnCl2, 1:1 Langmuir
T2 construct: Soluble heterodimer from CHO cells, Protein A purified
T2 sequence (chain, as listed by the source limits assumed, chain 1 of 2): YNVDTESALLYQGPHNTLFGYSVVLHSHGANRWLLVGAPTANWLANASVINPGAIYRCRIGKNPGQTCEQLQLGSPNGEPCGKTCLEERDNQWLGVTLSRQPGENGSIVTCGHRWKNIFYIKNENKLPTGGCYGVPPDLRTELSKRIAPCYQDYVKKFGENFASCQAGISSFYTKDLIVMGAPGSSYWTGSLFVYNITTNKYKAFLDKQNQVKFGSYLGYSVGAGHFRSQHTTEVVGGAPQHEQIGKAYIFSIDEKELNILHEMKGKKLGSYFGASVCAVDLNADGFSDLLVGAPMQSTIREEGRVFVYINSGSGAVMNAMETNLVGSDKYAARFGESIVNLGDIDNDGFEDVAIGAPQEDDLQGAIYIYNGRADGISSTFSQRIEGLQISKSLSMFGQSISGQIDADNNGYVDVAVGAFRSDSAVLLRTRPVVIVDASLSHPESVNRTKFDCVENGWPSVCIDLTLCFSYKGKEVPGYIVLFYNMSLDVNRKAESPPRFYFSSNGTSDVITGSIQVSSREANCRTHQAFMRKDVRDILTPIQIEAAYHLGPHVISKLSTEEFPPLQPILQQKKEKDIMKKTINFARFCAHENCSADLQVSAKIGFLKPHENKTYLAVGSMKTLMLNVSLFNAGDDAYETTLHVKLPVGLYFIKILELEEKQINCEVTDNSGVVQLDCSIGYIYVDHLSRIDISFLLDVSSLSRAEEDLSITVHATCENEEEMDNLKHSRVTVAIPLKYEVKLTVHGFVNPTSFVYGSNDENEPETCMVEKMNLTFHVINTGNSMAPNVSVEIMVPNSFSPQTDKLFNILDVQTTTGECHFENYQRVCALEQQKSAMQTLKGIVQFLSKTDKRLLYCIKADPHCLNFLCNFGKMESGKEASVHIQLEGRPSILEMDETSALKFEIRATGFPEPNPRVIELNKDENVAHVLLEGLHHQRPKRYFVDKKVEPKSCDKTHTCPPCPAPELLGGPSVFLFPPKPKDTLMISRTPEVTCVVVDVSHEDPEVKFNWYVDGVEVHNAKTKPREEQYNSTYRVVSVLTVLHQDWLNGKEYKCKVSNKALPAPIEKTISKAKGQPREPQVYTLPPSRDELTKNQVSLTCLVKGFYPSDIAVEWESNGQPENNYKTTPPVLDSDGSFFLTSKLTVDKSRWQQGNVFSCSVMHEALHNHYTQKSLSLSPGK
T2 sequence (chain, as listed by the source limits assumed, chain 2 of 2): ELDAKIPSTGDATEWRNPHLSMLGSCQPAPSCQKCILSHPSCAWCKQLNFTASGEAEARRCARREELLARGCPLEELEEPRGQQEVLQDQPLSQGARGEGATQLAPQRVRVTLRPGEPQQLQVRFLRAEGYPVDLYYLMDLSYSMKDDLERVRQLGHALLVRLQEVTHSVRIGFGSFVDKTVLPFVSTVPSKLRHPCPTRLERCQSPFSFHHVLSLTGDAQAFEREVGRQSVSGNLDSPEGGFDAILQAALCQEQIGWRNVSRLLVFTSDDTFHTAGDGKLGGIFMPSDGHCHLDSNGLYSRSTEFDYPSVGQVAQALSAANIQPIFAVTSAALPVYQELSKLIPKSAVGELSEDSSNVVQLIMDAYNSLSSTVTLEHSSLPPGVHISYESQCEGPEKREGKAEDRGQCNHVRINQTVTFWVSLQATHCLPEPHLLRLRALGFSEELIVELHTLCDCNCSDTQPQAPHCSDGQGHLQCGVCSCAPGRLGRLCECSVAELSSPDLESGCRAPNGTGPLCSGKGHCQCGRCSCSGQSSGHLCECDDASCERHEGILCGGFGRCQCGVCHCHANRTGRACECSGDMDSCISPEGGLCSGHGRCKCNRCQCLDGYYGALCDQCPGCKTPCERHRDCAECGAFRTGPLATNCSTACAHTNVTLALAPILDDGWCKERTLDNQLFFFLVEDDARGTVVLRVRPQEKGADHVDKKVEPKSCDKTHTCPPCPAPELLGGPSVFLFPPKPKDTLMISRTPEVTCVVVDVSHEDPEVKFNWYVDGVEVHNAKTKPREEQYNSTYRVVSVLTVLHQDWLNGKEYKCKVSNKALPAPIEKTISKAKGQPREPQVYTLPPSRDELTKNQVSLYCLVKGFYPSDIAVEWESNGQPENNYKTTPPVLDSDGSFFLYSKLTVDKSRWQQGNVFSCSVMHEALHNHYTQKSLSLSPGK
Method: as §1

[3] = target: T1, human VLA4-Fc (alpha4-Fc/beta1-Fc …); experiment: ELISA, VLA4-Fc coated, 1 mM MnCl2; from EC50 values
Method: The relative binding affinities of various 2D-VCAM-1 variants to immobilized VLA4-Fc (α4-β1-Fc) heterodimer, relative to a control protein (e.g., Q38L-2D-VCAM-1 or to human 2D-VCAM-1), were deter using a solid-phase ELISA assay. MAXISORP™ ELISA plates (NUNC) were coated overnight at 4° C. with 50 ul VLA4-Fc heterodimer, 2 ug/ml in TBS-M (TBS (25 mM Tris-HCl pH 7.5, 150 mM NaCl) with 1 mM MnCl2), washed with TBS-T (TBS with 0.05% TWEEN-20), blocked with 200 ul 3% milk in TBS-M for 1 h at room temperature, and washed again with TBS-T. A four-fold dilution series of the purified 2D-VCAM variants to be assayed was made in COSTAR U-bottom plates in TBS-TMC (TBS with 0.05% Tween-20, 1 mM MnCl2, and 1% casein; Sigma) with a starting concentration of 8.2 uM (200 ug/ml). The dilution series was transferred into the ELISA plate which was incubated at room temperature for 2 h and subsequently washed with TBS-T. Bound 2D-VCAM protein was detected by incubation with 0.5 ug/ml of biotinylated anti-human VCAM antibody (R&D Systems, Catalog No. BAF809) in TBS-TMC for 1 h at room temperature followed by a TBS-MT (TBS plus 1 mM MnCl2 and 0.02% TWEEN-20) wash and subsequent incubation with 1:2000 dilution of streptavidin-HRP (BD Biosciences, Catalog No. 554066) in TBS-TMC for 30 min at room temperature. […] Typical development times ranged from […] and development was stopped by addition of 50 ul 2M H₂SO₄ (EM, Catalog No. SX1244-75). […] Fold-improvement in binding was calculated relative to a control protein (e.g., Q38L-2D-VCAM-1 or human 2D-VCAM-1) assayed on the same plate.

[4] = target: T1, human VLA4-Fc (alpha4-Fc/beta1-Fc …); experiment: SPR (BIACORE), retest with new polypeptide preparations and new VLA4-Fc
Method: as §1

T1 sequence (chain, as listed by the source limits assumed, form in doubt, chain 1 of 2): as the sequence (chain, as listed by the source limits assumed, chain 1 of 2) above
T1 sequence (chain, as listed by the source limits assumed, form in doubt, chain 2 of 2): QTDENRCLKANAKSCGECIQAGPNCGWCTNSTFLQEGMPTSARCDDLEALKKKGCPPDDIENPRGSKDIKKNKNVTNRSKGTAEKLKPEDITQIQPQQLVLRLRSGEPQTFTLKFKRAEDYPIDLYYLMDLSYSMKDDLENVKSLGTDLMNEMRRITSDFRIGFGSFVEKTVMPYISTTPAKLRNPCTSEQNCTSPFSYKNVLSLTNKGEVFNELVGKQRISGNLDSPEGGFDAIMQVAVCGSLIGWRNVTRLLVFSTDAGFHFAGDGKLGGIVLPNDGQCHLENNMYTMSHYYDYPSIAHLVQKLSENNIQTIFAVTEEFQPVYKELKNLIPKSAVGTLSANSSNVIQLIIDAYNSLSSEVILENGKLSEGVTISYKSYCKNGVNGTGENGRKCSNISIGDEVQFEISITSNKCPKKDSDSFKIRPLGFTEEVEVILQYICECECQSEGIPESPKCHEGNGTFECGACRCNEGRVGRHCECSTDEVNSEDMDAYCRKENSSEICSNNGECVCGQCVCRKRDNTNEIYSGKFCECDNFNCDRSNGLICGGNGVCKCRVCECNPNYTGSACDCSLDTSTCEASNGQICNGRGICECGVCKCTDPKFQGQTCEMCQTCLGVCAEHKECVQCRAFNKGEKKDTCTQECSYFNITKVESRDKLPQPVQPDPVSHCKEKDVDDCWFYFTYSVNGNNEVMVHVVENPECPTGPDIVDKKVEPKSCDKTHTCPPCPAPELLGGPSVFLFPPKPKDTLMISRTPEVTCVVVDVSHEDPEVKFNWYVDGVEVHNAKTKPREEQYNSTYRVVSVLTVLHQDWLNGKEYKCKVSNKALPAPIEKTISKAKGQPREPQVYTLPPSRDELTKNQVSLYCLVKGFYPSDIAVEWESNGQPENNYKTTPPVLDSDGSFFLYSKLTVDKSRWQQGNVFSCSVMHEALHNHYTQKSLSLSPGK

| Binder | Kd [1] | binding affinity for VLA4-Fc relative to human 2D-VCAM-1 [1] | Kd [2] | binding affinity for LPAM-1-Fc relative to human 2D-VCAM-1 [2] | fold-improvement in binding relative to Q38L-2D-VCAM-1 [3] | fold-improvement in binding relative to human 2D-VCAM-1 [3] | Kd [4] |
| --- | --- | --- | --- | --- | --- | --- | --- |
| 2D-VCAM-1 variant Clone 46 (ligand, also called Clone 046; not shown: His tag) FKIETTPESRYLAQIGDSVSLTCSTTGCESPFFSWRPQLDAPLNGKVTNEGTTSTLTMNPVSFGNEHSYLCTATCESRKLEKGIQVEIYSFPKDPEIHLSGPLEAGKPITVKCSVADVYPFDRLEIDLLKGDHLMKSQEFLEDADRKSLETKSLEVTFTPVIEDIGKVLVCRAKLHIDEMDSVPTVRQAVKELQVYISP | 0.123 nM | 124 fold | 27.2 nM | 9 fold | 21 fold | 172 fold | 1.95 nM |
| 2D-VCAM-1 variant Clone 59 (ligand, also called Clone 059; not shown: His tag) FKIETTPESRYLAQIGDSVSLTCSTTGCESPFFSWRPLLDSPLNGKVTNEGTTSTLTMNPVSFGNEHSYLCTATCESRKLEKGIQVEIYSFPKDPEIHLSGPLEAGKPITVKCSVADVYPFDRLEIDLLKGDHLMKSQEFFEDAAWKSLETKSLEVTFTPVIEDIGKVLVCRAKLHIDEMDSVPTVRQAVKELQVYISP | 0.0501 nM | 303 fold | 0.405 nM | 612 fold | 34 fold | 272 fold | 0.095 nM |
| 2D-VCAM-1 variant Clone 47 (ligand, also called Clone 047; not shown: His tag) FKIETTPESRYLAQIGDSVSLTCSTTGCESPFFSWRPLLDSPLNGKVTNEGTTSTLTMNPVSFGNEHSYLCTATCESRKLEKGIQVEIYSFPKDPEIHLSGPLEAGKPITVKCSVADVYPFDRLEIDLLKGDHLMKSQEFLEDADRKSLETKSLEVTFTPVIEDIGKVLVCRAKLHIDEMDSVPTVRQAVKELQVYISP | 0.148 nM | 103 fold | 6.54 nM | 38 fold | 16 fold | 128 fold | 0.68 nM |
| Q38L-2D-VCAM-1 (ligand, also called Q38L 2D-VCAM-1 polypeptide; not shown: His tag) FKIETTPESRYLAQIGDSVSLTCSTTGCESPFFSWRTLIDSPLNGKVTNEGTTSTLTMNPVSFGNEHSYLCTATCESRKLEKGIQVEIYSFPKDPEIHLSGPLEAGKPITVKCSVADVYPFDRLEIDLLKGDHLMKSQEFLEDADRKSLETKSLEVTFTPVIEDIGKVLVCRAKLHIDEMDSVPTVRQAVKELQVYISP | 1.87 nM | 8 fold | 20.5 nM | 12 fold | 1 fold | 8 fold | – |
| 2D-VCAM-1 variant Clone 146 (ligand, not shown: small tags and cut ends) FKIETTPESRYLAQIGDSVSLTCSTTGCESPLFFWRPLLDSPLNGKVTNEGTTSTLTMNPVSFGNEHSYLCTARCESRSLEKGIQVEIYSFPKDPEIHLSGPLEAGKPITVKCSVADVYPFDRLEIDLLKGDHLMKSQEFLEDADRKSLETKSLEVTFTPVIEDIGKVLVCRAKLHIDEMDSVPTVRQAVKELQVYISP | – | – | 0.439 nM | 565 fold | – | – | – |
